Source: a protein production outcome set (Wang et al. 2014)

Assay: label from the status in PepcDB records
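Also: failed if final PepcDB status was selected cloned or expressed and not failed if soluble or beyond.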

Sequence | protein production
MSLDIAVVGIGYVGLVSATCFAELGANVRCIDTDRNKIEQLNSGTIPIYEPGLEKMIARNVKAGRLRFGTEIEQAVPEADIIFIAVGTPAGEDGSADMSYVLDAARSIGRAMSRYILIVTKSTVPVGSYRLIRKAIQEELDKREVLIDFDIASNPEFLKEGNAIDDFMKPDRVVVGVDSDRARELITSLYKPMLLNNFRVLFMDIASAEMTKYAANAMLATRISFMNDVANLCERVGADVSMVRLGIGSDSRIGSKFLYPGCGYGGSCFPKDVKALIRTAEDNGYRMEVLEAVERVNEKQKSILFDKFSTYYKGNVQGRCVAIWGLSFKPGTDDMREAPSLVLIEKLLEVGCRVRVYDPVAMKEAQKRLGDKVEYTTDMYDAVRGAEALFHVTEWKEFRMPDWSALSQAMAASLVIDGRNVYELPADSDFTLLNIGNSAIESEGHHHHHH | not failed
MKRPRGKPLFKPVKERNPVAVGVAGLLVLTLVALLVYNVDRLPFGGGTTYSADFSESAGLDEGDEVRIAGVKVGQVTGVALDGAKVKVSFEVEDAWIGDRTTAAIAIKTVLGDKYLALDPLGSGRQDPGARIPLARTTSPYDVTQAFQDLSGTVDDIDTGRLAESFETISDTFKDSPPHVRKAATGLSDLSKSISKRDAKLSELLKGSARFTKTLENNKSSFETLIEDGGPLLGELRDRRTAINALLKGSQDLGTELGGLVKDNEKQLGPTLKALGRVTSVLEKNNTRLGETLALVGPYYRLVGNTLGNGRWFDSYLCGVVPRDYLPETSQPSTGCLPPKQPAAAQGSGARLEHHHHHH | failed
CFVTRIRLLDSNVIECTLSVESTGQECLEAVAQRLELRETHYFGLWFLSKSQQARWVELEKPLKKHLDKFANEPLLFFGVM | failed
MTENGRYEYIVIGSEAAGVGLVRELTAAGKKVLAVDKSKEKIELLEDEGFDAVIADPTDESFYRSLDLEGVSAVLITGSDDEFNLKILKALRSVSDVYAIVRVSSPKKKEEFEEAGANLVVLVADAVKQAFMDKIKKMETLKKIEKLKRIMESLRGKRLGIFTHDNPDPDSMSSAYALREIAKQFDVIADILYYGEILHQKNRAMVNLLEIPMIRAPEVDLSHYDAFAIVDSSGPGVNNSIPPDIDISIVIDHHPAEKVVAEFVDLREDVGATATILTEYIKELKITPSKILATALFFGIKSETDEFKRNTRTADFLACAFLYPFVDQDLIEKIESPSISTETLDILGTAIKNRQVYSSFLISFAGFINDRDALPQAADFLLKLEGISTVVVFGVIKDTVYVSARNKDVRIHMGEVLRRAFGDVGSAGGHAHAAGAQIPLGIFGETNEKDLLAKLITEAITKRLLSAVGMEQS | failed
MDVAIELTTRVGVLLFFIAICHVIAQRVRLPDPIILTAAGVTIGFGYVALEHVAPAFAANTIAPFLSPAMPPEAYLWIFLPPILFQAAIEVDSSGFVADLGPILLLAIGAVVAATLSVGAVAYLTSGQGLIACLLLGAIVSTTDPSTVIGLFQSSGAPARLIRLVEGESLFNDAAAIAITTLLTGVISVMPTHDAAHFPLAQFLLSLLGGCAVGWLVGVVLVFVSGAMRSPPFAEYSLSLALPNLIYPFAERVLHVSGVAAVVCAGLVVGRIMLSRRPASHVKLFRQLWLYQATIASASVLLLATAHVPSLLDDLRMIDVVILLLVLVAAVASRFGILSVSMPMMSRIGICKPLPVSHQLLIAWGGVRGPVTLTLAICLARNQDLAPDTRHFAAAMAAGFVLLNLFFNGLTLKLFARWLGVAAPGGRRPAAIEVD | failed
MNSTLFSQVENHSVHSNFSEKNAQLLAFENDDCHLPLAMIFTLALAYGAVIILGVSGNLALIIIILKQKEMRNVTNILIVNLSFSDLLVAIMCLPFTFVYTLMDHWVFGEAMCKLNPFVQCVSITVSIFSLVLIAVERHQLIINPRGWRPNNRHAYVGIAVIWVLAVASSLPFLIYQVMTDEPFQNVTLDAYKDKYVCFDQFPSDSHRLSYTTLLLVLQYFGPLCFIFICYFKIYIRLKRRNNMMDKMRDNKYRSSETKRINIMLLSIVVAFAVCWLPLTIFNTVFDWNHQIIATCNHNLLFLLCHLTAMISTCVNPIFYGFLNKNFQRDLQFFFNFCDFRSRDDDYETIAMSTMHTDVSKTSLKQASPVAFKKINNNDDNEKI | failed
EQNSKEKFKQLFRVLEDTFARPLSPYEIETLNQWIDVDKHDSAIIQAALDEANSLNKLSFKYMDRILLNWKKNNV | failed
MNAATLVDTHAVDTALQEAFEAAPEGFALFDAEDRCVIWNARYGELWSKWGVTLAVGATFESLLLAGLAAGRFPEANGDRAAWLAHQLGRRKLDRIEEIREEFGEYLRFESRRTPAGGLITTCANLTNLRRREAQALAARSFLDTIVENTPAMLFVKDGDTGAFLLVNRAAENQLGVPRAELLGKSDYDFFPKEQADAFAADDRRVIASGKLVTIDEEPLDTPHNGRRWLQTRKIAIPGEDGRRHLLVICEDITERKAGAAALAEALQKAEAGSVAKSEFLANMSHEIRTPLNGVIGMAEVLSRTALDDAQREMMEVILNSGRALNLLLSDILDLSKIEAGGLELSRDPLDLREAITAAVAVFKAVAESKGLVFRLTFADDFHDHVLGDALRVRQIVANLTSNAVKFTTAGSVIIEARTLVAEDGRIDLTVSVQDTGEGFDEDSADRLFERFQQADGSVTRKVGGTGLGLPIARRLARLMDGEISCVAHPGEGATFVFEALFLADGQRTPALEHHHHHH | failed
MQVPGHAFNPVAAPYFPDHLAFLDGPMNARAQGLPRRLENIVLVADLAGTAVFAVEGAISAMRAQLDLLGVMVIAFIVALGGGVTRDLLIGATPPKAVADWRYPALALLMGGLAFVARDWVLGWSGPLLILLDAAGLGLFAVAGTQKAQNFGISPFVSMLMGTVTGVGGGVIRDIVLARIPLVLQVDLYASSAFVGAASLVIARRLGVPPLWSAWLAGTVCFALRMLSVRYGWQLPKAL | failed
EKRKVLIPIDFSNYSLKACQFGFSFANAINSEVVLLHAYFSPIYVPTIPYGTDNFNFQIEREESVKSMIETVHNELNKLSDTIKKKVESGEFPNIKYTCILRDGIPEEEILRYAKEYNPQIIIMGTRGRSQKDIDLIGSVTAEVIERSKSFVYAIPEHTPLK | failed
MSRQQNEEDTNSVLFDARNEYYIGNFMGSINFVLPEQGTAGPELLSYMYLSYLAIDSGRIVASDIKEGNSTPLQALRLVHEAFEQPSRTEELLEKLTDKVAGEEDETNIWHLATAIVYCHDGQFENALKILHGSTNLESMALSVQCLLRLQRVDLAKQLVAKMQEISDDATLTQLAQAWVALAQGTEQMQDAFHIYQEFCEKFKPTPALLNGQAVVHLGLERYEEADSVLRESLLKKHNDYDTLINLMVHAHLTGKPTEAITRNLEQLRQFYPKSDFVTDLDKKSAEFDRLCLQYDVEGGEKLLAV | failed
MNMNKTYIPKLDDLLGGGVKEGASIMFSASPGVDYEAFGYQMLNGRLDEGTRGFIFTNVEEPESIIYEFRSYGWDIESHIENGNLFFVDGSSPFLGMPSDQRYTVNDYSEIKDVVLNAINDIPGGVGIINNLSVIIDYLGNGDTLEIVEAWNRRASELDVNLVYLFTEWDYEPELIDKLRESMDCVVNLRTIEERVIIGQGFMVANSAWSEPPSTMVLFFVVQPGGVKVYVPKILVTGPYNSGKSSFVRAIATKSVSVDRKALSAFPTTIAMDIGHLEYKGFMADIFGTPGQERFDMILDVLSREAVGAFILLDSTAPETFARAKEMIRKTRAEAIPKVVVANKQDLPGALSPEEIREMMKLGADVPIVPASVTEGWGVRDALDTLLGLLYGGLEHHHHHH | failed
MMRRFKFVVQNITAKIVYTRICMGTIQKIRTDVNVLHAAIHRIEWLFETFSSVCLSFSGGKDSTVLLHLTADVARRKKRRFSVLFIDWEAQYQCTIAHILKMREMYRDVTETFYWVALPLTTVNGVSQFQPEWICWEPGVEWVRQPPDDAITDMSYFPFYRYAMTFEEFVPAFSSWFAGNRCGVAILTGVRADESLNRFMGLVSQRKLRYADDKPWTTASPEGFYYTLYPLYDWKARDIWIYNARTRAIYNPLYDLMYRAGVPLRNMRVCEPFGPEQRKGLWLYHVLEPETWARMCERVSGAASGALYANESGAYFALRKRITKPPHHTWRSYAMFLLDVMPERTAEHYRNKIAVYLRWYQTRGFPDDIPDEQENDLGSRDIPSWRRICKTLIKNDFWCRTLSFSPNKPRHYERYLQRMKERRKEWGIL | failed
MVRVDQNLFNEVMYLLDELSQDITVPKNVRKVAQDSKAKLSQENESLDLRCATVLSMLDEMANDPNVPAHGRTDLYTIISKLEALS | not failed
SKKVIGKKRAHAEDDELDPMDPSSYSDAPRGGWVVGLKGVQPRAADTTASGPLFQQRPYPSPGAVLRRNAEVASSQKKKPNSQFTEITKRGDGSDGLGDAD | failed
MNSFYSQEELKKIGFLSVGKNVLISKKASIYNPGVISVGNNVRIDDFCILSGKVTIGSYSHIAAYTALYGGEVGIEMYDFANISSRTIVYAAIDDFSGNALMGPTIPNQYKNVKTGKVILKKHVIIGAHSIIFPNVVIGEGVAVGAMSMVKESLDDWYIYVGVPVRKIKALEHHHHHH | not failed
MAEPVDVLVLGGGPAALCIASELNQWGVAVGCIAPDPVDASWPNTYGIWADELKMVGLEHLLEHRWSDTVSFFGAGGSTAQDQSHAHGIDYGLFDRAELQRYWLERADGVVWHQDTAERVDATSATTSVSCVSGTTLQARLVIDASGSRTPHIRRPDQGPVAGQAAYGVVGRFSQPPIEAGRFVLMDYRCDHLSAAQRQEPPTFLYAMDLGDGVFFVEETSLALAPGFSYDVLKQRLQQRLDQRGVAITEVIHEEFCLFPMNLPLPDRSQPLLAFGGAASMVHPASGYMVGSLLRRGPDLAKALAEALANRNLGSAALAQRGWQALWPIELVLRHQLYQFGLGRLMGFNEALLRTHFATFFSLPREEWFGFLTNTLPLPRLMGVMLRLFALSPWELRRGLVLGAAMDQLPTFDQSSG | failed
SDILLVHGSGYGGWCWDATIRALAAHGARARALDLPGRIFTPGLSLADHAAAILQEIRAPVTLVGHSAGGFSIAAAAEAAAPGLIERLIFLCAYAPRDGASVASMRRAQARQPLRPAIRLAPDRLSYSFDPDLAGEALFHDCPPEVRAAALARMGAEPVGPQEERIRLSARYHALPKHYIRCLEDRAIPPETQEAMTADWPAGSVSTLPAGHSPFLSCPEALAKRLISVAAN | failed
MVRGIRGAITVEEDTPEAIHQATRELLLKMLEANGIQSYEELAAVIFTVTEDLTFAFPAEAARQIGMHRVPLLSAREVPVPGSLPRVIRVLALWNTDTPQDRVRHVYLREAVRLRPDLESAQ | not failed
MIKHESSQPLRVAVAQCRIDWEDKHANLRRMERLAEETAGMADVLFFPEMMTTGFSMNVQALAEPFEEGETIMSLKRVTARHGLALSATMAVRENGKFYNRAYFVTPEGEVFHQDKRHLFRVGGEHEVMTPAQERRIFNY | failed
MAPAKSPRAWQRMLSGRRLDLLDPSPLDVEIADIAHGLARVARWNGQTRGDHAFTVAQHCLIVETIFCRMCPGATPDEMQMALLHDAPEYVIGDMISPFKSVVGGGYKTVEKRLEAAVHLRFGLPPHASRELKDRIKKADTVAAFFEATELAGFSTAEAQKFFGLPRGITRDMFDIIPLPSTEAQRLFIARFEAIETLRVTRTGGAV | not failed
MSLEGFICKFNRKRRLYIENIMQVRVTGILIEDEKVLLVKQKVANRDWSLPGGRVENGETLEEAMIREMREETGLEVKIKKLLYVCDKPDASPSLLHITFLLERIEGEITLPSNEFDHNPIHDVQMVPINELSYYGFSETFINLISGGLANAGSYQGLKRNIGEGHHHHHH | not failed
MKNNDLTTYGEYLEKLSPKHGREKVFNDFLQIVVCCLSMGRKEELYFKTIKPYDKTELDLFSQAFAALVMQMDRQPLVDPFGDYFQEFLSNAQNGQFFTPFGVCELMNQLITAPKVSDQPKQGDRRVLDPACGSGRLLLSAAQKDRALTFVGIDISYTCCLMTIINLCLNSLNGEVLHMNALTDQYWHRWLIIVDSVTKIPTVYEVEAGIINQPPACADDLKPLPVTGIIQPVKNMIPANFVRYTPKCLEHHHHHH | failed
